This is an account of results in patent US20120156193A1.

This test concerns the target A beta 1-40 oligomer (synthetic A beta1-40, HCl form, 0.1 mg/ml in PBS, incubated at 37 degrees C for one hour) (UniProt P05067). Put plainly: SPR, Biacore 3000, A beta oligomer on CM5 chip, antibody as analyte.

As to “Anti-A beta antibody 6E10 (Covance Immuno-Technologies)”, the Kd turned out to be 2.91 nM, the koff came out at 0.000168 s⁻¹ and the kon turned out to be 57800 M⁻¹ s⁻¹.
